Laboratory results from the supplement of paper PMC9112550, “Optimization of the antimicrobial peptide Bac7 by deep mutational scanning” (BMC Biology, 2022).

System: Escherichia coli TOP10
Assay: shrunken log2 fold change of peptide-encoding DNA abundance (4.5 h post-induction vs induction); higher = less antimicrobial activity (less host growth inhibition)
Conditions: time post-induction: 4.5 h; library: site-saturation at positions 5, 18, 19, 20
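Also: peptides expressed intracellularly from a pBAD plasmid library in pooled LB shake-flask culture, induced with 0.3% L-arabinose, DNA abundance read by NGS, three biological replicates, DESeq2 with apeglm shrinkage.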

RRIRIRPPRLPRPRPRPSFAPRP
shrunken log2 fold change: -0.24

RRIRVRPPRLPRPRPRPILGPRP
shrunken log2 fold change: 0.0313

RRIRGRPPRLPRPRPRPRTCPRP
shrunken log2 fold change: 0.592

RRIRCRPPRLPRPRPRPMQPPRP
shrunken log2 fold change: 0.462

RRIRCRPPRLPRPRPRPFERPRP
shrunken log2 fold change: -0.0613

RRIRPRPPRLPRPRPRPCMRPRP
shrunken log2 fold change: -0.239

RRIRFRPPRLPRPRPRPCNKPRP
shrunken log2 fold change: -0.249

RRIRRRPPRLPRPRPRPFIYPRP
shrunken log2 fold change: -0.194

RRIRFRPPRLPRPRPRPKAMPRP
shrunken log2 fold change: 0.23

RRIRFRPPRLPRPRPRPGGRPRP
shrunken log2 fold change: 0.323

RRIRCRPPRLPRPRPRPHLPPRP
shrunken log2 fold change: -0.195

RRIRIRPPRLPRPRPRPSPRPRP
shrunken log2 fold change: -0.0771

RRIRDRPPRLPRPRPRPLCPPRP
shrunken log2 fold change: -0.00491

RRIRMRPPRLPRPRPRPAWIPRP
shrunken log2 fold change: 0.052

RRIRWRPPRLPRPRPRPTHHPRP
shrunken log2 fold change: 0.104

RRIRIRPPRLPRPRPRPGWNPRP
shrunken log2 fold change: -0.0913

RRIRDRPPRLPRPRPRPENIPRP
shrunken log2 fold change: -0.172

RRIRYRPPRLPRPRPRPALLPRP
shrunken log2 fold change: -0.0984

RRIRKRPPRLPRPRPRPCEVPRP
shrunken log2 fold change: 0.0441

RRIRSRPPRLPRPRPRPMKPPRP
shrunken log2 fold change: -0.0309

RRIRLRPPRLPRPRPRPGKRPRP
shrunken log2 fold change: 0.364

RRIRHRPPRLPRPRPRPQGQPRP
shrunken log2 fold change: 0.043

RRIRARPPRLPRPRPRPHVRPRP
shrunken log2 fold change: -0.0112

RRIRGRPPRLPRPRPRPQHNPRP
shrunken log2 fold change: -0.186

RRIRCRPPRLPRPRPRPSKEPRP
shrunken log2 fold change: 0.0893

RRIRARPPRLPRPRPRPIQYPRP
shrunken log2 fold change: -0.463

RRIRIRPPRLPRPRPRPNYHPRP
shrunken log2 fold change: -0.733

RRIRARPPRLPRPRPRPTKGPRP
shrunken log2 fold change: 0.308

RRIRHRPPRLPRPRPRPALQPRP
shrunken log2 fold change: 0.0339

RRIRPRPPRLPRPRPRPPRLPRP
shrunken log2 fold change: 0.406

RRIRQRPPRLPRPRPRPWAEPRP
shrunken log2 fold change: -0.0482

RRIRCRPPRLPRPRPRPHWKPRP
shrunken log2 fold change: -0.126

RRIRCRPPRLPRPRPRPLCSPRP
shrunken log2 fold change: -0.399

RRIRKRPPRLPRPRPRPCSNPRP
shrunken log2 fold change: -0.0227

RRIRNRPPRLPRPRPRPTVVPRP
shrunken log2 fold change: 0.229

RRIRNRPPRLPRPRPRPTMMPRP
shrunken log2 fold change: 0.0241

RRIRHRPPRLPRPRPRPQVDPRP
shrunken log2 fold change: -0.0221

RRIRARPPRLPRPRPRPGHPPRP
shrunken log2 fold change: 0.543

RRIRYRPPRLPRPRPRPTRSPRP
shrunken log2 fold change: -0.581

RRIRSRPPRLPRPRPRPLEMPRP
shrunken log2 fold change: -0.314

RRIRHRPPRLPRPRPRPIAAPRP
shrunken log2 fold change: -0.0333

RRIRDRPPRLPRPRPRPIHFPRP
shrunken log2 fold change: -0.0728

RRIRHRPPRLPRPRPRPANQPRP
shrunken log2 fold change: -0.0712

RRIRIRPPRLPRPRPRPWSSPRP
shrunken log2 fold change: -0.1

RRIRLRPPRLPRPRPRPTMNPRP
shrunken log2 fold change: -0.362

RRIRLRPPRLPRPRPRPFHAPRP
shrunken log2 fold change: -0.219

RRIRARPPRLPRPRPRPQQGPRP
shrunken log2 fold change: -0.0917

RRIRSRPPRLPRPRPRPKLDPRP
shrunken log2 fold change: -0.037

RRIRCRPPRLPRPRPRPQRNPRP
shrunken log2 fold change: -0.0392

RRIRDRPPRLPRPRPRPSKCPRP
shrunken log2 fold change: -0.317

RRIRNRPPRLPRPRPRPTMAPRP
shrunken log2 fold change: 0.0535

RRIRWRPPRLPRPRPRPNEDPRP
shrunken log2 fold change: 0.211

RRIRIRPPRLPRPRPRPDKSPRP
shrunken log2 fold change: -0.0563

RRIRNRPPRLPRPRPRPAGMPRP
shrunken log2 fold change: -0.126

RRIRYRPPRLPRPRPRPQEMPRP
shrunken log2 fold change: -0.0143

RRIRKRPPRLPRPRPRPWDKPRP
shrunken log2 fold change: -0.0876

RRIRCRPPRLPRPRPRPQYDPRP
shrunken log2 fold change: -0.644

RRIRGRPPRLPRPRPRPHYEPRP
shrunken log2 fold change: -0.21

RRIRMRPPRLPRPRPRPIWTPRP
shrunken log2 fold change: 0.12

RRIRERPPRLPRPRPRPDFNPRP
shrunken log2 fold change: -0.175
